The source of these data is US20040259176A1, “Structural basis for the guanine nucleotide-binding activity of tissue transglutaminase and its regulation of transamidation activity” (priority 2003, published 2004).

What all share (type): cell-based, human
Experiment [1] relates to SKBR3 cells. In words: Cell growth assay. To be noted: low serum medium, 5 μM RA or 100 ng/ml EGF, up to 6 days; FIG. 9C. On the procedure:
(§1) Cells were grown for 2 days in complete media and subsequently placed in low serum. The following day, cells were left untreated (0), treated with 5 μM RA (RA), 100 ng/ml EGF (EGF), or co-treated with 5 μM RA and 100 ng/ml EGF (RA/EGF) for 2 days and then lysed. In FIG. 9A, the cell extracts were used to determine TG GTP-binding activities (GTP-TGase) using an affinity-labeling assay with radioactive GTP as outlined in Example 11. Western blot analysis using TG and actin antibodies was performed to assess the expression levels of each of these proteins (TGase and actin). In FIG. 9B, the same cell lysates were assayed for TG transamidation activities as determined by the incorporation of 5-(biotin-amido) pentylamine into proteins as described in Example 12. The experiments were conducted in triplicate, quantitated, and the values from each experiment were averaged together and plotted. In FIG. 9C, SKBR3 cells were seeded at 1×10^5 cells/well and grown in low serum medium +/−5 μM RA and +/−100 ng/ml EGF for the times indicated and then counted. The results from three independent growth assays were averaged together and plotted.
Cells were seeded at 1×10^5 cells/well and grown in medium containing 0.5% serum +/−5 μM RA and +/−100 ng/ml EGF. Every 2 days the medium was changed. At 0, 2, 4, and 6 days of treatment, the cells were collected and counted.

The subject of experiment [2] is SKBR3 cells. In words: Nuclear condensation or blebbing assay (doxorubicin-induced apoptosis). Conditions: SKBR3 cells stimulated with EGF (100 ng/ml) for 2 days prior to doxorubicin; FIG. 11B. The protocol: FIGS. 1A-D illustrate that the protective effect of EGF from doxorubicin-induced apoptosis is blocked by MDC in SKBR3 cells. In FIG. 11A, nearly confluent cultures of SKBR3 and MDAMB231 cells were placed in low serum medium. The following day, the cells were exposed to low serum medium +/−0.25 μM doxorubicin (Dox) for the times indicated and subsequently lysed. The presence of the activated form of caspase 3 (cleaved caspase 3) and actin (actin) in the cell extracts was assessed by Western blot analysis. In FIG. 11B, SKBR3 and MDAMB231 cells were maintained in low serum medium (0) or treated with 10 μM MDC (MDC) for 1.5 days. […] All cell cultures were then treated with +/−0.25 μM doxorubicin (Dox) for about 1 day and the cells were scored for programmed cell death as described in Example 13. […]
NIH3T3 cells were grown in Dulbecco's modified Eagle's medium containing 10% calf serum and 100 units/ml penicillin. […] Protein concentrations were determined using the Bio-Rad DC protein assay.
Cells were seeded in 6-well dishes and grown in complete medium for 2 days. […] The cultures were then incubated with fresh medium containing RA, EGF, and MDC and +/−0.2 μM doxorubicin for an additional 1.5 days and were fixed and stained with 4,6-diamidino-2-phenylindole (2 μg/ml) for viewing by fluorescence microscopy. […]

Experiment [3] concerns tissue transglutaminase (TG). In words: TG transamidation assay (incorporation of 5-(biotin-amido) pentylamine) in SKBR3 cell extracts. Conditions: SKBR3 cells, EGF compared with RA; FIG. 9A-B. The protocol: as §1
TG transamidation assays were performed as previously described with slight modifications. 15 μg of whole cell extracts were incubated in a buffer containing 2 mM 5-(biotin-amido) pentylamine, 40 mM CaCl2, and 40 mM DTT for 20 minutes. […]

Experiment [4] concerns tissue transglutaminase (TG). In words: TG expression by Western blot in SKBR3 cells. To be noted: 5 μM RA or 100 ng/ml EGF for 2 days, FIG. 9A. The protocol:
Cells were grown for 2 days in complete media and subsequently placed in low serum. The following day, cells were left untreated (0), treated with 5 μM RA (RA), 100 ng/ml EGF (EGF), or co-treated with 5 μM RA and 100 ng/ml EGF (RA/EGF) for 2 days and then lysed. In FIG. 9A, the cell extracts were used to determine TG GTP-binding activities (GTP-TGase) using an affinity-labeling assay with radioactive GTP as outlined in Example 11. Western blot analysis using TG and actin antibodies was performed to assess the expression levels of each of these proteins (TGase and actin). In FIG. 9B, the same cell lysates were assayed for TG transamidation activities as determined by the incorporation of 5-(biotin-amido) pentylamine into proteins as described in Example 12. The experiments were conducted in triplicate, quantitated, and the values from each experiment were averaged together and plotted. In FIG. 9C, SKBR3 cells were seeded at 1×10^5 cells/well and grown in low serum medium +/−5 μM RA and +/−100 ng/ml EGF for the times indicated and then counted. The results from three independent growth assays were averaged together and plotted. […]
NIH3T3 cells were grown in Dulbecco's modified Eagle's medium containing 10% calf serum and 100 units/ml penicillin. […] Protein concentrations were determined using the Bio-Rad DC protein assay. […]
On the technique in general: Immunoblotting shows a protein as a band on a membrane.

Experiment [5] has as its system tissue transglutaminase (TG). In words: TG GTP-binding activity by photoaffinity labeling with [α-32P]GTP in SKBR3 cell lysates. To be noted: SKBR3 cells, 5 μM RA or 100 ng/ml EGF for 2 days; FIG. 9A. On the procedure: as §1
Photoaffinity labeling of TG was performed by incubating whole cell lysates with 5 μCi of [α-^32P]GTP in 50 mM Tris-HCl, pH 7.4, 2 mM EGTA, 1 mM DTT, 20% (w/v) glycerol, 100 mM NaCl, and 500 μM AMP-PNP for 10 minutes at room temperature. […]

Experiment [6] has as its system tissue transglutaminase (TG). Kind of experiment: TG expression and activation in MDAMB231 cells (Western blot, GTP-binding, transamidation). Conditions: growth factor (EGF) stimulation, FIG. 9A-B. On the procedure:
as §1
Total cell lysates from each sample were combined with Laemmli sample buffer, boiled, and subjected to SDS-polyacrylamide gel electrophoresis (PAGE). […]

B1: EGF: epidermal growth factor, a known mitogen and survival factor (protein, UniProt P01133 23-1207, looked up)
Pro-epidermal growth factor: PQHWSCPEGTLAGNGNSTCVGPAPFLIFSHGNSIFRIDTEGTNYEQLVVDAGVSVIMDFHYNEKRIYWVDLERQLLQRVFLNGSRQERVCNIEKNVSGMAINWINEEVIWSNQQEGIITVTDMKGNNSHILLSALKYPANVAVDPVERFIFWSSEVAGSLYRADLDGVGVKALLETSEKITAVSLDVLDKRLFWIQYNREGSNSLICSCDYDGGSVHISKHPTQHNLFAMSLFGDRIFYSTWKMKTIWIANKHTGKDMVRINLHSSFVPLGELKVVHPLAQPKAEDDTWEPEQKLCKLRKGNCSSTVCGQDLQSHLCMCAEGYALSRDRKYCEDVNECAFWNHGCTLGCKNTPGSYYCTCPVGFVLLPDGKRCHQLVSCPRNVSECSHDCVLTSEGPLCFCPEGSVLERDGKTCSGCSSPDNGGCSQLCVPLSPVSWECDCFPGYDLQLDEKSCAASGPQPFLLFANSQDIRHMHFDGTDYGTLLSQQMGMVYALDHDPVENKIYFAHTALKWIERANMDGSQRERLIEEGVDVPEGLAVDWIGRRFYWTDRGKSLIGRSDLNGKRSKIITKENISQPRGIAVHPMAKRLFWTDTGINPRIESSSLQGLGRLVIASSDLIWPSGITIDFLTDKLYWCDAKQSVIEMANLDGSKRRRLTQNDVGHPFAVAVFEDYVWFSDWAMPSVMRVNKRTGKDRVRLQGSMLKPSSLVVVHPLAKPGADPCLYQNGGCEHICKKRLGTAWCSCREGFMKASDGKTCLALDGHQLLAGGEVDLKNQVTPLDILSKTRVSEDNITESQHMLVAEIMVSDQDDCAPVGCSMYARCISEGEDATCQCLKGFAGDGKLCSDIDECEMGVPVCPPASSKCINTEGGYVCRCSEGYQGDGIHCLDIDECQLGEHSCGENASCTNTEGGYTCMCAGRLSEPGLICPDSTPPPHLREDDHHYSVRNSDSECPLSHDGYCLHDGVCMYIEALDKYACNCVVGYIGERCQYRDLKWWELRHAGHGQQQKVIVVAVCVVVLVMLLLLSLWGAHYYRTQKLLSKNPKNPYEESSRDVRSRRPADTEDGMSSCPQPWFVVIKEHQDLKNGGQPVAGEDGQAADGSMQPTSWRQEPQLCGMGTEQGCWIPVSSDKGSCPQVMERSFHMPSYGTQTLEGGVEKPHSLLSANPLWQQRALDPPHQMELTQ
modifications: Pro-epidermal growth factor
For the molecule B1, the “growth of SKBR3 cells” value with SKBR3 cells [1] was “did not impede the growth”. The “reduction in the rate of apoptosis” value with SKBR3 cells [2] is recorded as 50%. Also, the “GTP-binding and enzymatic (transamidation) activity of TG” value in experiment [3] is recorded as “more effective than RA”. In addition, the TG expression entry in experiment [4] is listed as “up-regulated TG expression”. The “TG GTP-binding activity” value in experiment [5] is “increased GTP-binding”. The “constitutive level of TG expression or activation” value in experiment [6] is on record as “did not alter the constitutive level of TG expression or activation”.
